Measured values reported in patent publication US20230303660A1.
Each block holds one binder with its values, some of them ahead of it.

Biological target: human 4-1BB (human) (UniProt Q07011)
Assay: flow cytometry; dilution series of HEK293T supernatant on Jurkat TPR cells expressing human 4-1BB

human 4-1BB (human), sequence (Q07011 24-255): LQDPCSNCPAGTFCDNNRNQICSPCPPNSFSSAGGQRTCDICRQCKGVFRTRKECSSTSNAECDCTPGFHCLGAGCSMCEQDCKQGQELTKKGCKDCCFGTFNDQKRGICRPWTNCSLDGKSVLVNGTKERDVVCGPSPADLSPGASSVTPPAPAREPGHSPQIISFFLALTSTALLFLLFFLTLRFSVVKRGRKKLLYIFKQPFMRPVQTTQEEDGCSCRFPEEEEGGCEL

- supernatant dilution at which binding is no longer detectable (supernatant dilution (1:x)): 256
B1: Triple-s4-1BBL-TriXVIII^LL (ligand)
chain: GSGSNWSHPQFEKGGSGGHHHHHHGGSGGGSSGAGGSGGSSGSDGASGSGVRLWATRQAMLGQVHEVPEGWLIFVAEQEELYVRVQNGFRKVQLEARTPLPRGTDNEGSLDLRQGMFAQLVAQNVLLIDGPLSWYSDPGLAGVSLTGGLSYKEDTKELVVAKAGVYYVFFQLELRRVVAGEGSGSVSLALHLQPLRSAAGAAALALTVDLPPASSEARNSAFGFQGRLLHLSAGQRLGVHLHTEARARHAWQLTQGATVLGLFRVTPEIPAGLPSPRSEGGGGSGGGGSGGGGSLDLRQGMFAQLVAQNVLLIDGPLSWYSDPGLAGVSLTGGLSYKEDTKELVVAKAGVYYVFFQLELRRVVAGEGSGSVSLALHLQPLRSAAGAAALALTVDLPPASSEARNSAFGFQGRLLHLSAGQRLGVHLHTEARARHAWQLTQGATVLGLFRVTPEIPAGLPSPRSEGGGGSGGGGSGGGGSLDLRQGMFAQLVAQNVLLIDGPLSWYSDPGLAGVSLTGGLSYKEDTKELVVAKAGVYYVFFQLELRRVVAGEGSGSVSLALHLQPLRSAAGAAALALTVDLPPASSEARNSAFGFQGRLLHLSAGQRLGVHLHTEARARHAWQLTQGATVLGLFRVTPEIPAGLPSPRSE

- supernatant dilution at which binding is no longer detectable (supernatant dilution (1:x)): 512
B2: s4-1BBL-TriXV (ligand)
chain: GSGSNWSHPQFEKGGSGGHHHHHHGGSGGGSRNLVTAFSNMDDMLQKAHLVIEGTFIYLRDSTEFFIRVRDGWKKLQLGELIPIPADSGSLDLRQGMFAQLVAQNVLLIDGPLSWYSDPGLAGVSLTGGLSYKEDTKELVVAKAGVYYVFFQLELRRVVAGEGSGSVSLALHLQPLRSAAGAAALALTVDLPPASSEARNSAFGFQGRLLHLSAGQRLGVHLHTEARARHAWQLTQGATVLGLFRVTPEIPAGLPSPRSE
